The Human Domainome abundance scans (Beltran et al. 2025)
± gives the uncertainty stated by the source.

B1: Nuclear receptor subfamily 1 group D member 2, residues 103 to 171; numbered along this chain, Q14995 (parent)
chain: CKVCGDVASGFHYGVHACEGCKGFFRRSIQQNIQYKKCLKNENCSIMRMNRNRCQQCRFKKCLSVGMSR

Variants of: B1
Assay: abundance fitness (aPCA) (normalised: wild type 0, dead -1); higher = more abundant; growth selection in yeast, the domain comes from the species named
Conditions: Homo sapiens

Abundance fitness: each site, then its substitutions
I33: Y -0.181 ± 0.12; G -0.338 ± 0.053; P -0.672 ± 0.12; F -0.38 ± 0.082; W -0.668 ± 0.12; C -0.591 ± 0.097; A -0.377 ± 0.058; R -0.531 ± 0.058; H -0.493 ± 0.14; D -0.708 ± 0.088; M -0.35 ± 0.077; S -0.527 ± 0.071; E -0.424 ± 0.089; L -0.065 ± 0.049; V -0.213 ± 0.048; Q -0.553 ± 0.11
N32: R -0.423 ± 0.068; T -0.414 ± 0.092; W -0.891 ± 0.12; A -0.343 ± 0.077; H -0.566 ± 0.14; Y -0.776 ± 0.17; K -0.401 ± 0.11; G -0.074 ± 0.046; M -0.44 ± 0.14; I -0.329 ± 0.12; F -0.408 ± 0.14; Q 0.144 ± 0.12; C -0.612 ± 0.2; S -0.381 ± 0.072; E 0.176 ± 0.083; D -0.199 ± 0.093; L -0.706 ± 0.099; V -0.672 ± 0.084
Q31: R -0.289 ± 0.075; P -0.457 ± 0.15; I -0.635 ± 0.29; F 0.04 ± 0.2; C -0.551 ± 0.15; M -0.262 ± 0.15; A -0.51 ± 0.099; N -0.475 ± 0.37; K -0.391 ± 0.25; D -0.278 ± 0.18; T -0.238 ± 0.11; Y -0.276 ± 0.18; L -0.169 ± 0.11; W -0.465 ± 0.12; G -0.152 ± 0.072; V -0.623 ± 0.13; E 0.197 ± 0.1; S -0.207 ± 0.12
N41: A -0.219 ± 0.085; Y -0.492 ± 0.35; V -0.446 ± 0.13; C -0.738 ± 0.19; L -0.348 ± 0.12; G -0.036 ± 0.09; Q -0.285 ± 0.16; W -0.664 ± 0.24; S -0.022 ± 0.096; H -0.638 ± 0.25; F -0.717 ± 0.41; T -0.047 ± 0.12; E -0.063 ± 0.089; P -0.264 ± 0.13; M -0.586 ± 0.17; D -0.225 ± 0.24
S45: K -0.646 ± 0.44; C -0.03 ± 0.16; G -0.119 ± 0.11; M 0.156 ± 0.21; I -0.039 ± 0.14; N 0.261 ± 0.19; L -0.183 ± 0.1; W -0.54 ± 0.18; Y -0.045 ± 0.14; V -0.056 ± 0.1; P -0.166 ± 0.13; A -0.424 ± 0.14; T -0.133 ± 0.13; R -0.259 ± 0.051
R48: T -0.013 ± 0.11; G 0.089 ± 0.079; K -0.005 ± 0.13; F -0.318 ± 0.41; Q 0.134 ± 0.15; E 0.125 ± 0.13; Y 0.066 ± 0.25; C -0.417 ± 0.23; I 0.117 ± 0.27; P 0.346 ± 0.082; S -0.002 ± 0.069; M 0.443 ± 0.22; D 0.402 ± 0.17; W -0.018 ± 0.1; L 0.191 ± 0.084; A 0.193 ± 0.09; V 0.241 ± 0.11
N50: I -0.415 ± 0.12; Q 0.032 ± 0.11; M -0.61 ± 0.15; K -0.346 ± 0.15; S -0.349 ± 0.088; P -0.45 ± 0.16; G -0.383 ± 0.11; F -0.107 ± 0.13; L -0.45 ± 0.082; R -0.359 ± 0.073; E -0.193 ± 0.16; T -0.121 ± 0.086
I46: A -0.041 ± 0.13; Y 0.082 ± 0.22; L -0.282 ± 0.15; Q -0.39 ± 0.44; F -0.613 ± 0.088; W -0.709 ± 0.26; P 0.068 ± 0.15; T -0.387 ± 0.22; S -0.353 ± 0.16; V 0.123 ± 0.12; N -0.012 ± 0.22; G -0.258 ± 0.11; H -0.162 ± 0.22; R -0.127 ± 0.092; K -0.789 ± 0.38; E -0.437 ± 0.24; M -0.093 ± 0.26
M49: E 0.114 ± 0.12; N 0.093 ± 0.36; F 0.195 ± 0.37; D 0.428 ± 0.11; T 0.147 ± 0.18; Q 0.15 ± 0.18; R -0.316 ± 0.11; G 0.044 ± 0.12; K 0.12 ± 0.23; P -0.178 ± 0.25; Y 0.128 ± 0.37; S 0.076 ± 0.15; I 0.56 ± 0.37
K36: E 0.219 ± 0.35; L -0.459 ± 0.17; T -0.292 ± 0.2; S 0.137 ± 0.18; I -0.509 ± 0.48; P -0.199 ± 0.16; A -0.172 ± 0.12; Q -0.305 ± 0.27; W -0.33 ± 0.2; V -0.26 ± 0.12; G 0.092 ± 0.11; M -0.267 ± 0.24; D -0.439 ± 0.31
F25: Y -0.481 ± 0.39; V -0.785 ± 0.22; S -0.609 ± 0.16; R -0.646 ± 0.19; W -0.332 ± 0.23
E42: C -0.592 ± 0.26; Y -0.674 ± 0.31; F -0.809 ± 0.29; G 0.13 ± 0.063; T -0.671 ± 0.19; L -0.847 ± 0.15; K -0.109 ± 0.14; H -0.231 ± 0.19
